Measured values: article PMC3043101

Target: invariant chain (Ii), endogenous in Raji cells (human (endogenous in Raji)) (UniProt P04233)
Experiment: cross-linking; pooled sucrose gradient fractions 7/8 or 14/15 of Raji cell lysate; increasing DSP (up to 200 µg/ml), 2 h on ice; non-reducing SDS-PAGE; western blot for DRα (TAL-1B5) or Ii (Bu43)

invariant chain (Ii), endogenous in Raji cells (from UniProt P04233 1-296) (natural protein)
stoichiometry N: 3
